Measured values published in patent US20240240234.

Tests used:
[1] = system: EcoGII adenine methyltransferase; settings: methylation efficiency by DpnII protection; SAM; 0.1% BSA improves
[2] = system: Hia5 adenine methyltransferase; settings: methylation efficiency by DpnII protection; SAM; 0.1% BSA improves
[3] = system: LMNB1 (Lamin B1) (Homo sapiens); settings: DiMeLo-seq pA-Hia5 in situ, signal:background mA ratio (IgG control 1.6)

| Substance | activity [1] | activity [2] | binding signal [3] |
| --- | --- | --- | --- |
| 90-bp duplex with single GATC | 100% | 100% |  |
| constitutive lamina-associated domains (cLADs) |  |  | 34.3 |
